Results reported in the supplement of paper PMC9112550, “Optimization of the antimicrobial peptide Bac7 by deep mutational scanning” (BMC Biology, 2022).

System: Escherichia coli TOP10
Assay: shrunken log2 fold change of peptide-encoding DNA abundance (4.5 h post-induction vs induction); higher = less antimicrobial activity (less host growth inhibition)
Conditions: time post-induction: 4.5 h; library: site-saturation at positions 5, 18, 19, 20
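Note: peptides expressed intracellularly from a pBAD plasmid library in pooled LB shake-flask culture, induced with 0.3% L-arabinose, DNA abundance read by NGS, three biological replicates, DESeq2 with apeglm shrinkage.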

Sequence	shrunken log2 fold change
RRIRVRPPRLPRPRPRPWIYPRP	0.0875
RRIRIRPPRLPRPRPRPWQNPRP	0.00641
RRIRIRPPRLPRPRPRPYTVPRP	-1.32
RRIRGRPPRLPRPRPRPLQYPRP	-0.251
RRIRYRPPRLPRPRPRPCLTPRP	-0.125
RRIRFRPPRLPRPRPRPDACPRP	0.0499
RRIRERPPRLPRPRPRPKQKPRP	-0.0338
RRIRNRPPRLPRPRPRPTWIPRP	-0.0601
RRIRKRPPRLPRPRPRPCFEPRP	0.336
RRIRIRPPRLPRPRPRPPPPPRP	0.714
RRIRKRPPRLPRPRPRPTPVPRP	0.756
RRIRNRPPRLPRPRPRPEVQPRP	0.0358
RRIRFRPPRLPRPRPRPVIYPRP	-0.588
RRIRMRPPRLPRPRPRPILNPRP	-0.248
RRIRMRPPRLPRPRPRPSQHPRP	0.136
RRIRKRPPRLPRPRPRPTLNPRP	0.505
RRIRFRPPRLPRPRPRPWLCPRP	-0.173
RRIRSRPPRLPRPRPRPTCCPRP	0.164
RRIRMRPPRLPRPRPRPDDIPRP	-0.00151
RRIRQRPPRLPRPRPRPCYVPRP	-0.0541
RRIRSRPPRLPRPRPRPVCKPRP	-0.0891
RRIRFRPPRLPRPRPRPQYNPRP	-1.05
RRIRPRPPRLPRPRPRPIDLPRP	-0.0858
RRIRSRPPRLPRPRPRPIYYPRP	-0.641
RRIRKRPPRLPRPRPRPTGKPRP	0.905

Sequence	shrunken log2 fold change
RRIRLRPPRLPRPRPRPDRFPRP	-0.00452
RRIRGRPPRLPRPRPRPSDNPRP	-0.165
RRIRPRPPRLPRPRPRPQAMPRP	0.132
RRIRCRPPRLPRPRPRPKVHPRP	-0.0287
RRIRERPPRLPRPRPRPYEVPRP	-0.448
RRIRCRPPRLPRPRPRPCKFPRP	-0.431
RRIRWRPPRLPRPRPRPQLNPRP	0.679
RRIRKRPPRLPRPRPRPPTCPRP	0.217
RRIRARPPRLPRPRPRPIGTPRP	0.0903
RRIRVRPPRLPRPRPRPENEPRP	-0.0631
RRIRARPPRLPRPRPRPTSIPRP	0.109
RRIRRRPPRLPRPRPRPTWPPRP	0.647
RRIRKRPPRLPRPRPRPRCQPRP	0.099
RRIRNRPPRLPRPRPRPELCPRP	0.232
RRIRNRPPRLPRPRPRPTVYPRP	0.0487
RRIRARPPRLPRPRPRPFAAPRP	0.644
RRIRERPPRLPRPRPRPSVHPRP	-0.329
RRIRIRPPRLPRPRPRPDMDPRP	-0.122
RRIRYRPPRLPRPRPRPMFCPRP	-0.297
RRIRIRPPRLPRPRPRPFTPPRP	-0.875
RRIRNRPPRLPRPRPRPNIRPRP	-0.103
RRIRQRPPRLPRPRPRPTMCPRP	-0.0814
RRIRHRPPRLPRPRPRPRHWPRP	-0.0269
RRIRIRPPRLPRPRPRPNCTPRP	-0.663
RRIRPRPPRLPRPRPRPHPCPRP	-0.105

Sequence	shrunken log2 fold change
RRIRVRPPRLPRPRPRPSVLPRP	0.226
RRIRCRPPRLPRPRPRPCWCPRP	-0.203
RRIRIRPPRLPRPRPRPNIHPRP	-0.936
RRIRNRPPRLPRPRPRPEGAPRP	2.8
RRIRNRPPRLPRPRPRPTEQPRP	-0.209
RRIRGRPPRLPRPRPRPPNCPRP	0.266
RRIRKRPPRLPRPRPRPGGIPRP	0.569
RRIRSRPPRLPRPRPRPPPFPRP	0.449
RRIRQRPPRLPRPRPRPHWMPRP	-0.0751
RRIRCRPPRLPRPRPRPCADPRP	-0.0836
RRIRRRPPRLPRPRPRPTHDPRP	0.89
RRIRKRPPRLPRPRPRPSACPRP	-0.0843
RRIRGRPPRLPRPRPRPKLDPRP	1.2
RRIRDRPPRLPRPRPRPSMLPRP	-0.244
RRIRIRPPRLPRPRPRPFWIPRP	-0.193
RRIRWRPPRLPRPRPRPVSSPRP	0.117
RRIRIRPPRLPRPRPRPNFMPRP	0.713
RRIRSRPPRLPRPRPRPRVEPRP	0.183
RRIRRRPPRLPRPRPRPYEAPRP	0.125
RRIRTRPPRLPRPRPRPGAGPRP	0.286
RRIRTRPPRLPRPRPRPPTIPRP	-0.248
RRIRIRPPRLPRPRPRPPHFPRP	-0.138
RRIRSRPPRLPRPRPRPCPMPRP	-0.337
RRIRVRPPRLPRPRPRPVNCPRP	-0.17
RRIRERPPRLPRPRPRPDSKPRP	-0.312

Sequence	shrunken log2 fold change
RRIRARPPRLPRPRPRPQSCPRP	-0.0161
RRIRGRPPRLPRPRPRPQYEPRP	0.0238
RRIRQRPPRLPRPRPRPCFSPRP	-0.0347
RRIRARPPRLPRPRPRPEYYPRP	-0.059
RRIRTRPPRLPRPRPRPKIRPRP	0.0372
RRIRRRPPRLPRPRPRPFTPPRP	-0.0158
RRIRCRPPRLPRPRPRPRNEPRP	-0.0561
RRIRERPPRLPRPRPRPERDPRP	-0.0208
RRIRWRPPRLPRPRPRPTDAPRP	-0.0515
RRIRFRPPRLPRPRPRPPYWPRP	0.191
RRIRVRPPRLPRPRPRPDDKPRP	-0.446
RRIRTRPPRLPRPRPRPKYFPRP	-0.444
RRIRDRPPRLPRPRPRPYMPPRP	-0.517
RRIRARPPRLPRPRPRPTRMPRP	0.865
RRIRERPPRLPRPRPRPWTPPRP	-0.15
RRIRARPPRLPRPRPRPAMTPRP	0.356
RRIRDRPPRLPRPRPRPMKMPRP	0.0275
RRIRVRPPRLPRPRPRPLVGPRP	0.726
RRIRYRPPRLPRPRPRPESKPRP	-0.859
RRIRQRPPRLPRPRPRPPPQPRP	0.712
RRIRIRPPRLPRPRPRPEQFPRP	0.00851
RRIRRRPPRLPRPRPRPNTFPRP	0.085
RRIRTRPPRLPRPRPRPFGFPRP	-0.473
RRIRVRPPRLPRPRPRPYYPPRP	-0.414
RRIRDRPPRLPRPRPRPDTWPRP	0.335

Sequence	shrunken log2 fold change
RRIRLRPPRLPRPRPRPPWYPRP	-0.312
RRIRMRPPRLPRPRPRPQDMPRP	-0.0638
RRIRHRPPRLPRPRPRPAYHPRP	-0.274
RRIRNRPPRLPRPRPRPSDIPRP	0.0588
RRIRDRPPRLPRPRPRPTMLPRP	0.138
RRIRSRPPRLPRPRPRPPSNPRP	-0.00786
RRIRKRPPRLPRPRPRPRRAPRP	0.9
RRIRQRPPRLPRPRPRPGKSPRP	-0.103
RRIRARPPRLPRPRPRPFKNPRP	-0.193
RRIRCRPPRLPRPRPRPKFCPRP	-0.0358
RRIRNRPPRLPRPRPRPFLKPRP	-0.294
RRIRIRPPRLPRPRPRPCLVPRP	-0.687
RRIRERPPRLPRPRPRPYQCPRP	-0.00884
RRIRNRPPRLPRPRPRPHLQPRP	-0.198
RRIRWRPPRLPRPRPRPVSMPRP	-0.00416
RRIRERPPRLPRPRPRPTNIPRP	-0.905
RRIRHRPPRLPRPRPRPLEDPRP	0.0039
RRIRRRPPRLPRPRPRPVDKPRP	0.0213
RRIRRRPPRLPRPRPRPYQMPRP	-0.0261
RRIRARPPRLPRPRPRPISGPRP	-0.00122
RRIRLRPPRLPRPRPRPIHHPRP	-0.246
RRIRERPPRLPRPRPRPEKWPRP	-0.0225
RRIRTRPPRLPRPRPRPDMMPRP	-0.182
RRIRNRPPRLPRPRPRPWYGPRP	-0.56
RRIRERPPRLPRPRPRPCSRPRP	-0.00322

Sequence	shrunken log2 fold change
RRIRCRPPRLPRPRPRPVIIPRP	-1.28
RRIRWRPPRLPRPRPRPWWHPRP	0.357
RRIRTRPPRLPRPRPRPELKPRP	0.432
RRIRFRPPRLPRPRPRPHLDPRP	-0.275
RRIRARPPRLPRPRPRPMKNPRP	0.0488
RRIRDRPPRLPRPRPRPTCVPRP	0.346
RRIRIRPPRLPRPRPRPKCCPRP	-0.143
RRIRERPPRLPRPRPRPLYKPRP	-0.769
RRIRFRPPRLPRPRPRPGYSPRP	-0.934
RRIRSRPPRLPRPRPRPAKHPRP	-0.0685
RRIRQRPPRLPRPRPRPGRCPRP	0.321
RRIRGRPPRLPRPRPRPALQPRP	0.333
RRIRPRPPRLPRPRPRPWCIPRP	-0.519
RRIRKRPPRLPRPRPRPNCIPRP	-0.0156
RRIRCRPPRLPRPRPRPPWPPRP	0.54
RRIRERPPRLPRPRPRPSKLPRP	-1.06
RRIRKRPPRLPRPRPRPNATPRP	1.16
RRIRCRPPRLPRPRPRPRELPRP	0.506
RRIRHRPPRLPRPRPRPKQPPRP	-0.00478
RRIRTRPPRLPRPRPRPPAHPRP	0.252
RRIRSRPPRLPRPRPRPPCTPRP	-0.174
RRIRSRPPRLPRPRPRPPKTPRP	-0.0288
RRIRGRPPRLPRPRPRPIYQPRP	0.0644
RRIRTRPPRLPRPRPRPPQPPRP	0.154
RRIRVRPPRLPRPRPRPDNMPRP	-0.868
